In patent US20250108100A1, “C-TERMINAL FRAGMENT OF APOLIPOPROTEIN E AND APPLICATION THEREOF IN INHIBITING y-SECRETASE ACTIVITY” (SYNPHATEC (SHANGHAI) BIOPHARMACEUTICAL TECHNOLOGY CO., LTD., priority 2022, published 2025):
Entries after “also recorded” stand apart in the source; their conditions may differ.

Assays:
APP mutants = assay: α-CTF produced by APP variants with AD-related mutations co-expressed in HEK 293T cells; type: cell-based, human
Description: Plasmids were transfected in HEK 293T or N2A cells for 36-48 hours and then lysed in cell lysis buffer [10% 1M tris-HCl (pH=6.8), 4% SDS, 20% glycerol, 0.01% bromophenol blue]. Lysates were shaken at room temperature for 10 min, then boiled for 10 min, and centrifuged at 12,000×g for 10 min. Proteins were run on 8% or 12% Tris-glycine SDS-PAGE and transferred to PVDF membranes (Life Technologies). Samples were incubated overnight at 4° C. with primary antibody diluted in 5% BSA buffer (in 1×TBST). After washing 3 times with 1×TBST, they were incubated with secondary antibody diluted in 5% BSA buffer (in 1×TBST) for 2 hours at room temperature. Finally, after washing 3 times with 1×TBST, the signal was detected by ECL Western blotting substrate (Solarbio, PE0010).

5×FAD mice = assay: Distribution of neuronally expressed ApoE around amyloid plaques in 5×FAD mice (immunofluorescence); type: in vivo, mouse
Description: Mice were anesthetized with isoflurane and perfused with 4% PFA. Dissected mouse brains were fixed overnight in 4% PFA and cryoprotected overnight in 30% sucrose. A cryostat (Leica CM3050S) was used to obtain frozen brain slices ([…]) from fixed and cryoprotected mouse brains. Floating slices were washed 3 times with 1×PBS and then permeabilized with 0.5% Triton-X in 1×PBS for 30 minutes. After blocking with 5% BSA in 1×PBS at room temperature for 1 h, the slices were incubated overnight at 4° C. in 5% BSA (in 1×PBS) buffer comprising the primary antibody. Slices were washed 3 times with 1×PBS and incubated with secondary antibody diluted in 5% BSA (1×PBS) buffer for 1 hour at room temperature. Samples were then washed 3 times with 1×PBS and mounted with Prolong Gold Antifade Mountant (Life Technology).
After being deeply anesthetized with isoflurane, mice (5 weeks old) were placed in a stereotaxic apparatus (RWD Instruments). The zero point (x, y, z, 0, 0, 0) is Bregma. Lentivirus (lentivirus-GFP, lentivirus-ApoE and lentivirus-ApoE-IRES-GFP) and AAV (AAV2/9-hSyn-EGFP-WPRE-pA and AAV2/9-hSyn-ApoECT; purchased from Shanghai Taitool Bioscience Co. Ltd.) were injected into the cortex (x, y, z, +/−1.6, 0, −1) or hippocampus (x, y, z, +/−1.5, −2, −1.5), injected 1 ul on each injection site. The mice were then returned to their cages for rehabilitation after surgery.

[1] = system: HEK 293T cells expressing APP; assay: APP-expressing HEK 293T cells co-incubated with culture medium containing secreted ApoE2 or ApoE CT: α-CTF; type: cell-based, human; settings: vs GFP control
Description: • a) A plasmid expressing the target protein in mammalian cells was constructed, and the protein expression promoter is CAG. • b) The target protein was expressed in HEK 293T cell line. Cells were subcultured one day before transfection, and transfection was performed when the degree of cell adhesion reached 70%-80%. The transfection reagent was lipofectamine2000 (ThermoFisher). • c) 4-6 hours post transfection, the medium were replaced with fresh cell culture medium. • d) 36-48 hours post transfection, the cells were lysed (10% 1M tris-HCl (pH=6.8), 4% SDS, 20% glycerol, 0.01% bromophenol blue), and the protein samples were collected and used for Western blot or stored in a −80° C. freezer. • e) Polyacrylamide gel electrophoresis. Before protein loading, the protein was boiled at 98° C. for 10 min, and then centrifuged at 12000 rpm for 10 min. Electrophoresis: 80V for the upper stacking gel; 120V for the lower separating gel. • f) Protein transfer. […]

[2] = system: γ-secretase (PS1, PS2) knockout HEK 293T cells; assay: PS1 KO, PS2 KO and PS1/2 dKO HEK 293T cell lines: α-CTF and Aβ40; type: cell-based, human
Description: • a) A plasmid expressing the target protein in mammalian cells was constructed, and the protein expression promoter is CAG. • b) The target protein was expressed in HEK 293T cell line. Cells were subcultured one day before transfection, and transfection was performed when the degree of cell adhesion reached 70%-80%. The transfection reagent was lipofectamine2000 (ThermoFisher). • c) 4-6 hours post transfection, the medium were replaced with fresh cell culture medium. • d) 36-48 hours post transfection, the cells were lysed (10% 1M tris-HCl (pH=6.8), 4% SDS, 20% glycerol, 0.01% bromophenol blue), and the protein samples were collected and used for Western blot or stored in a −80° C. freezer. • e) Polyacrylamide gel electrophoresis. Before protein loading, the protein was boiled at 98° C. for 10 min, and then centrifuged at 12000 rpm for 10 min. Electrophoresis: 80V for the upper stacking gel; 120V for the lower separating gel. • f) Protein transfer. The filter paper was soaked in the electrophoresis solution before use, and the PVDF membrane was put in methanol for 10s to activate, and the gel after electrophoresis was taken out from the electrophoresis tank, put in the order of filter paper—PVD membrane—gel-filter paper from bottom to top, and they were put into the transfer instrument, with transferring in constant current at 0.1 A for 70 min. • g) Blocking and antibody incubation: the transferred PVDF membrane was placed in 5% BSA/TBST blocking solution, and blocked on a shaker at room temperature for 1 hour. The primary antibody was used to incubate at 4° C. overnight on a shaker (12-16 h); 1×TBST was used to wash three times, once every 10 minutes; the secondary antibody was used to incubate, shaked at room temperature for 1-2 h; 1×TBST was used to wash three times, once every 10 minutes. • h) Imaging by development: development was performed with ECL chemiluminescence hypersensitive chromogenic reagent.
The experiment was performed according to the standard procedure in the ELISA analysis kit of Invitrogen Company. • a) The target protein was expressed in HEK 293T cell line. Cells were subcultured one day before transfection, and transfection was performed when the degree of cell adhesion reached 70%-80%. The transfection reagent was lipofectamine2000 (ThermoFisher). • b) 4-6 hours post transfection, medium were replaced with fresh cell culture medium. • c) 36-48 hours post transfection, the cell culture medium was collected, and then the ELISA process was performed or the cell culture medium was frozen in a −80° C. refrigerator. • d) 50 μl of standard samples and experimental samples were added to each well of the 96-well plate. • e) 50 μl of human-derived Aβ40 or Aβ42 or mouse-derived Aβ40 detection antibody was added to each well of the 96-well plate. • f) The above samples were shaken gently and placed at room temperature for 3 hours. • g) The liquid in the well were removed, and the plate was washed 4 times with 1× wash buffer. • h) 100 μl of the buffer containing 1× anti-Rabbit IgG HRP was added. • i) The plate was shaken gently and placed at room temperature for […]. • j) The liquid in the well were removed, and the well was washed 4 times with 1× wash buffer. • k) 100 μl of Stabilized Chromogen was added to each well, and the plate was placed in the dark for 30 minutes at room temperature. • l) 100 μl of Stop Solution was added to each well. • m) The absorbance at 450 nm was measured with a microplate reader. 2.4 qRT-PCR […]

B1: ApoE CT: C-terminal fragment of ApoE, positions 216-299 of SEQ ID NO: 12; SEQ ID NO: 33 (protein)
chain: ARMEEMGSRTRDRLDEVKEQVAEVRAKLEEQAQQIRLQAEAFQARLKSWFEPLVEDMQRQWAGLVEKVQAAVGTSAAPVPSDNH
effect on α-CTF levels, Icelandic mutation (APP mutants; APP A673T): no difference | ability to increase α-CTF levels compared to WT APP (APP mutants; APP fAD mutations near γ cleavage site (T714I, V717F, L723P)): significantly reduced | α-CTF produced by all tested APP mutants (APP mutants; HEK 293T cells): increased α-CTF | α-CTF produced by APPM596V (APP mutants; HEK 293T cells, APP mutation that cannot conduct β-cleavage): able to increase α-CTF | effect on α-CTF levels, WT APP vs APP mutants (APP mutants; fAD mutations near β- or α-cleavage site (KM670/671NL, E693K, E693A)): no statistically significant difference | migration to and accumulation around amyloid plaques (5×FAD mice; AAV expression in cortex, DG and CA3 neurons): migrated to the subiculum and accumulated in amyloid plaques | accumulation around amyloid plaques (5×FAD mice; lentiviral vectors): a similar distribution pattern was detected around amyloid plaques | α-CTF produced by APP in cells co-incubated with protein in culture medium [1]: does not significantly alter α-CTF levels; also recorded: does not change the α-CTF; also recorded: does not alter the α-CTF | Aβ40 in PS1/2 dKO cells supplemented with PS2 ([2]; ELISA): can reduce Aβ40; also recorded: significantly reduced Aβ40 | α-CTF in PS1/2 dKO cells ([2]; PS1 and PS2 double knockout HEK 293T cells): does not further increase α-CTF; also recorded: did not further increase α-CTF levels | α-CTF in PS1 KO cells ([2]; PS1 single knockout HEK 293T cells): still able to increase α-CTF | α-CTF in PS2 KO cells ([2]; PS2 single knockout HEK 293T cells): still able to increase α-CTF | α-CTF in PS1/2 dKO cells supplemented with PS1 or PS2 ([2]; rescued expression of PS1 or PS2): can significantly increase α-CTF; also recorded: again significantly increased α-CTF
